From patent publication US20210130453A1 (AstraZeneca / MedImmune, published 2021)

T1: recombinant human gp130 (human, UniProt P40189 23-619, limits assumed)
T1 sequence (looked up): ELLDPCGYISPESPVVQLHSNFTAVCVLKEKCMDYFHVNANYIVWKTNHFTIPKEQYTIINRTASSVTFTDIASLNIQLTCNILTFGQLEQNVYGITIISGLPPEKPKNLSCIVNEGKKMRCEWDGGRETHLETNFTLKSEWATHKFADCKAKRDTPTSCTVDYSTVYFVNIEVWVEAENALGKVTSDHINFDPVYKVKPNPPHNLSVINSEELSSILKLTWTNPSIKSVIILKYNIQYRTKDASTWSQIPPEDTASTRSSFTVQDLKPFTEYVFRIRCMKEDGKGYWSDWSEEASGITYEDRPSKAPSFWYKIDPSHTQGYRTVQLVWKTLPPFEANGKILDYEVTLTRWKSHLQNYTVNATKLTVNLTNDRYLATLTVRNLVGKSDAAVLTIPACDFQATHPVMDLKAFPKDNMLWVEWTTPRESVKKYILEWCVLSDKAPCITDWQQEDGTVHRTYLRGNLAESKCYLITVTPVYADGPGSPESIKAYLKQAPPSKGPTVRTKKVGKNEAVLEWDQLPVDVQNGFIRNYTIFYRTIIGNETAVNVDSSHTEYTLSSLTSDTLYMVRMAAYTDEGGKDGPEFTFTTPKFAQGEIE

T2: recombinant human LIFR (human, UniProt P42702 45-833, limits assumed)
T2 construct: also called hLIFR
T2 sequence (looked up): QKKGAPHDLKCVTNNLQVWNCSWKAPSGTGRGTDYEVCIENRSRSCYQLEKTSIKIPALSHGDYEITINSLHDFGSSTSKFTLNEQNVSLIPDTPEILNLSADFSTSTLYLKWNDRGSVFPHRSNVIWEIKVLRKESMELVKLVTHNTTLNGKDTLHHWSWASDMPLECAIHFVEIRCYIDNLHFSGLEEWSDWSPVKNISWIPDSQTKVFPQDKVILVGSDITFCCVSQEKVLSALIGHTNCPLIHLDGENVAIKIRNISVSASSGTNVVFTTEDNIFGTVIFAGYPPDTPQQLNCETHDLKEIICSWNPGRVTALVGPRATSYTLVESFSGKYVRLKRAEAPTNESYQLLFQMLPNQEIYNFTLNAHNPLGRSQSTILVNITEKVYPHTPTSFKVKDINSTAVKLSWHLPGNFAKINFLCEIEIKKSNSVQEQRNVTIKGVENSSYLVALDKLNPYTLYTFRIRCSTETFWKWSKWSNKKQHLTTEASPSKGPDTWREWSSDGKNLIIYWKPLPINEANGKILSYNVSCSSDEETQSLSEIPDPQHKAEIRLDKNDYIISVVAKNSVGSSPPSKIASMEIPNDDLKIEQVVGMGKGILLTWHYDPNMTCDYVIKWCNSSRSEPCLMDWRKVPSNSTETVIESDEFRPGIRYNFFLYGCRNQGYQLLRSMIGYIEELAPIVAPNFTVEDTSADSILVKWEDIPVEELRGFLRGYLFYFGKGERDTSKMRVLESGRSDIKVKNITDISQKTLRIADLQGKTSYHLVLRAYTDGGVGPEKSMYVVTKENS

B1: human LIF (source not stated) (ligand)
chain: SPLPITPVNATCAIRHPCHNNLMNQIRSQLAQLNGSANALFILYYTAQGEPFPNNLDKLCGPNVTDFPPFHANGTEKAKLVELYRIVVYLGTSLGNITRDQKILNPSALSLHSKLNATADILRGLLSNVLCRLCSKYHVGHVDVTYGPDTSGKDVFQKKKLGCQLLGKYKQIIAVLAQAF
notes: also called hLIF; endogenous LIF of U-251 cells

Legend:
recombinant human gp130 = biological target: T1, recombinant human gp130; assay: ELISA: LIF pre-incubated with B09, added to a plate coated with gp130, detected through the antibody with peroxidase anti-rat IgG
[1] = biological target: B1; assay: cell-based or functional assay
human IL-6 (E. coli) = biological target: T3, human IL-6 (E. coli) (human, UniProt P05231 30-212, limits assumed); assay: BLI (Octet), h5D8 amine-coupled to AR2G sensors, cytokine analyte; legend: ND = no binding
T3 construct: also called huIL-6 (E. coli)
T3 sequence (P05231 30-212 limits assumed): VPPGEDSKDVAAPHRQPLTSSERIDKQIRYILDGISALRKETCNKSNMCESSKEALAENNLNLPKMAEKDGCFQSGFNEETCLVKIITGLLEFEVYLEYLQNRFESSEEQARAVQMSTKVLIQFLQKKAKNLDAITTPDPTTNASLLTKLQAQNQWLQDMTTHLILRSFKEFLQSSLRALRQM
Protocol: 9.0.0.26 as follows: Amine Reactive 2ndGeneration Biosensors (AR2G) were hydrated for a minimum of 15 minutes in water. […] Kinetics experiments were then performed with the following Dip and Read steps at 30° C., 1000 rpm: vi) 60 seconds Baseline in 1× kinetics buffer; vii) 180 seconds Association of appropriate serial dilutions of a cytokine in 1× kinetics buffer; viii) 300 seconds Dissociation in 1× kinetics buffer; ix) Three Regeneration/Neutralization cycles alternating between 10 mM glycine pH 2.0 and 1× kinetics buffer respectively (5 seconds in each for 3 cycles). Following regeneration, the biosensors were reused for subsequent binding analyses.

recombinant human LIFR = biological target: T2, recombinant human LIFR; assay: BLI (Octet RED96) control experiment, h5D8 on AHC sensors

binding result (recombinant human gp130) | IC50 for biological inhibition (pSTAT3, U-251 cells, serum starved, endogenous LIF) [1] [picomolar] | binding result (human IL-6 (E. coli)) | binding result (recombinant human LIFR) | Binder
binds |  |  |  | B1
 | 490 | no binding | no binding | h5D8 (humanized 5D8, H2L2) (antibody, V domains shown, Humanized by CDR grafting from rat 5D8; also called G (H2L2); H5D8-1 IgG) VH: QVQLQESGGGLVKPGGSLRLSCAASGFTFSHAWMHWVRQAPGKGLEWVGQIKAKSDDYATYYAESVKGRFTISRDDSKNTLYLQMNSLKTEDTAVYYCTCWEWDLDFWGQGTMVTVSS VL: DIVMTQTPLSSPVTLGQPASISCRSSQSLLDSDGHTYLNWLQQRPGQPPRLLIYSVSNLESGVPDRFSGSGAGTDFTLKISRVEAEDVGVYYCMQATHAPPYTFGQGTKLEIK
